Data: patent US20210347914A1

Columns and labels:
[1] = biological target: GFAP purified from human brain (human) (UniProt P14136); test: chemiluminescent sandwich ELISA; GFAP-2 capture, HRP-GFAP-6 detection; GFAP standard 160 pg/ml
[2] = biological target: GFAP purified from human brain (human) (UniProt P14136); test: chemiluminescent sandwich ELISA; GFAP-2 capture, HRP-GFAP-6 detection; GFAP standard 320 pg/ml
[3] = biological target: GFAP purified from human brain (human) (UniProt P14136); test: chemiluminescent sandwich ELISA; GFAP-2 capture, HRP-GFAP-6 detection; GFAP standard 640 pg/ml
[4] = biological target: GFAP purified from human brain (human) (UniProt P14136); test: chemiluminescent sandwich ELISA; GFAP-2 capture, HRP-GFAP-6 detection; GFAP standard 20 pg/ml
[5] = biological target: GFAP purified from human brain (human) (UniProt P14136); test: chemiluminescent sandwich ELISA; GFAP-2 capture, HRP-GFAP-6 detection; GFAP standard 10 pg/ml
[6] = biological target: GFAP purified from human brain (human) (UniProt P14136); test: chemiluminescent sandwich ELISA; GFAP-2 capture, HRP-GFAP-6 detection; GFAP standard 80 pg/ml
[7] = biological target: GFAP purified from human brain (human) (UniProt P14136); test: chemiluminescent sandwich ELISA; GFAP-2 capture, HRP-GFAP-6 detection; GFAP standard 40 pg/ml

Sequence of GFAP purified from human brain (human) (P14136 whole entry): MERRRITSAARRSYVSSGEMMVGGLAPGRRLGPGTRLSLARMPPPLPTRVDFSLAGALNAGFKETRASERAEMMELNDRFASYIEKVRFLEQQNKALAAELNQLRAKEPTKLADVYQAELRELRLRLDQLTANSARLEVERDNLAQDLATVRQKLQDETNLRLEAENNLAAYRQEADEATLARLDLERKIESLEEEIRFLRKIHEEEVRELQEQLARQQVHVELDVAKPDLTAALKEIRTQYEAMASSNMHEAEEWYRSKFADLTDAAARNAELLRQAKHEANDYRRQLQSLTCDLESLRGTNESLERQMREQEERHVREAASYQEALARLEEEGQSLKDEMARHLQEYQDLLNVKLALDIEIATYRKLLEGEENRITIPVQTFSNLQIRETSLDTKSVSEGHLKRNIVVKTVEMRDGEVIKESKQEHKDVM

Relative Light Unit (rlu) [1]: 208000 rlu | Relative Light Unit (rlu) [2]: 487000 rlu | Relative Light Unit (rlu) [3]: 1.12e+06 rlu | Relative Light Unit (rlu) [4]: 7420 rlu | Relative Light Unit (rlu) [5]: 3640 rlu | Relative Light Unit (rlu) [6]: 72700 rlu | Relative Light Unit (rlu) [7]: 22700 rlu
B1: GFAP-6 (antibody, V domains shown)
VH: EVQLQQSGAEFVKPGASVKLSCTASGFNIKDTDMHWVRQRPEQGLESIGLIDPAIGNTKYDPKFQGKATITADTSSNAAYLQLSSLTSEDTAVYYCARSDRYLAWFAYWGQGTLVTVSA
VL: DIVMTQSPATLSVTPGDRVSLSCRASQSISDFLHWYQQKSHGSPRLLIKYSSQSISGIPSRFSGSGSGSDFTLSINSVEPEDVGVYYCQNGHTFPYTFGGGTKLEIK
